# Measured values: publication PMC5650921
# pKd: −log10 of the molar value.
# What was measured:
# [1] = target: EREG/sEGFR501 complex (human) (UniProt P00533); assay: small-angle X-ray scattering
# [2] = target: sEGFR501 1-501 (Homo sapiens) (UniProt P00533); details: cited from earlier work
Substance,pKd [1],pKd [2]
EREG/sEGFR501 complex (from UniProt P00533 25-525; O14944 56-116),< 3.70,
sEGFR501 1-501 (from UniProt P00533),,5.52
